Measured values taken from PMC8699718, “A structurally conserved site in AUP1 binds the E2 enzyme UBE2G2 and is essential for ER-associated degradation” (PLoS Biology, 2021).

Target: T1, gp78 RING (Homo sapiens, UniProt Q9UKV5)
T1 construct: The gp78-RING construct (aa 313 to 393) was generated by inserting a stop codon; GST (pGEX-4T-2 vector) (N); made in house
Test: NMR titration (1H-15N HSQC CSP) of 15N-UBE2G2 with or without G2BR with gp78 RING
Assay type: binding
Conditions: overall value; 15N-UBE2G2 150 μM, gp78 RING 0-450 μM, 50 mM Tris-Cl pH 7.0, 0.5 mM TCEP, 100 μM zinc sulfate, 0.05% sodium azide; G2BR 1:1.1 where present; read-out: affinity for gp78 RING (Kd) by NMR CSP
Procedure: Fig 5 Titration of UBE2G2:G2BR with gp78 RING. Superposition of ^15N-^1H^N HSQC NMR spectra for apo-UBE2G2 and UBE2G2 bound to G2BR^AUP1 (A) or G2BR^gp78 (B). Spectra for UBE2G2 (150 μM) bound to G2BR were acquired at a 1:1.1 ratio. (C) Superposition of the spectra for apo-UBE2G2, UBE2G2:G2BR^AUP1, and UBE2G2:G2BR^gp78, illustrating the equivalence of perturbations between G2BR^AUP1 and G2BR^gp78. (D) Expansion of overlaid resonances corresponding to UBE2G2 residues showing fast exchange binding kinetics for gp78 RING binding to both UBE2G2:G2BR^AUP1 (left panels) and UBE2G2:G2BR^gp78 (right panels). Spectra were acquired at ratios of RING to UBE2G2:G2BR of 0, 0.33, 0.67, 1.0, 2.0, and 3.0. […]
UBE2G2 and gp78 RING used in titration experiments were expressed and purified as previously described. […] The changes in chemical shift for each peak in the 2D spectrum upon gp78 RING binding was calculated using the following CSP equation: ΔCSP=(ΔδN/5)^2+(ΔδH)^2/2 (1)
The CSPs calculated from Eq 1 were plotted versus the molar ratio of gp78 RING to UBE2G2:G2BR, and the data were fit using the following equation to calculate the dissociation constant (Kd), where x is the ligand-to-protein ratio: ΔCSP=ΔCSPmax/2*1+x+Kd/P−(1+x+Kd)^2/P−4x (2)

T1 sequence (Q9UKV5 313-393, one chain of several): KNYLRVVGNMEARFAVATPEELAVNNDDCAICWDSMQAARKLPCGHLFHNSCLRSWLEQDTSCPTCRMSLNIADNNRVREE

B1: UBE2G2: ERAD ubiquitin-conjugating enzyme (E2); purified in vitro, N-terminally MYC-tagged in cells (protein)
chain: MAGTALKRLMAEYKQLTLNPPEGIVAGPMNEENFFEWEALIMGPEDTCFEFGVFPAILSFPLDYPLSPPKMRFTCEMFHPNIYPDGRVCISILHAPGDDPMGYESSAERWSPVQSVEKILLSVVSMLAEPNDESGANVDASKMWRDDREQFYKIAKQIVQKSLGL
B1 was tested, and the Kd was 207 ± 6.4 µM.
